How the values were obtained:
U87MG cells [1] = experiment: U87MG growth in semi-solid (soft) agar; format: cell-based, human; details: Alamar Blue
Description: […] Approximately 15,000 cells±treatment were resuspended in 150 μl medium containing 0.3% agar, and seeded onto a well of a 24-well plate previously layered with 250 μl 0.6% agar. The solidified cell layer was covered with 50 μl DME±treatment which was replaced every three days over a 21 day period. Phase contrast images (6 fields/well) were captured using a digital video camera (Olympus U-CMT) and analyzed with Northern Eclipse v.5.0 software. Color images were transformed to grey scale, thresholded, and then converted to binary images. Number and area of colonies per field were calculated. In order to measure cell viability, at the end of the experiment, 40 μl alamar blue was added to each well and fluorescence readings were performed every 10 min for a period of 180 min. Experiments were repeated 2-3 times in triplicates.

U87MG cells [2] = details: disclosed in copending PCT/CA2006/000250; cited from earlier work
cathepsin B = target: T1, cathepsin B (Homo sapiens, UniProt P07858); experiment: Intracellular cathepsin B activity in HBEC seeded on Matrigel (Magic Red); format: cell-based; details: 20 nM
T1 construct: Levels of cathepsin B activity were also measured in U87MG CM alone or pre-incubated; endogenous in cells; host or cells: U87MG (ATCC), 3-day serum-free conditioned medium
Description: (§1) In vitro angiogenesis was assessed by endothelial tube formation in growth factor reduced Matrigel™ (BD Bioscience, Bedford, Mass.). 24-well plates were coated with 300 μl of unpolymerized Matrigel™ (5-7 mg prot/ml) and allowed to polymerize for 90 min at 37° C. HBEC (40,000 cells) were suspended in 500 μl of either DME, serum-free U87MG CM (collected as described in Cell Cultures) or growth factors (VEGF, IGF-1, bFGF) in the absence or presence of 20 nM of either full length recombinant IGFBP-1 (IBP1, produced at BRI-NRC), IGFBP-2 (IBP2, produced at BRI-NRC and purchased from R&D systems, Minneapolis), IGFBP-3 (IBP3, from R&D systems), IGFBP-4 (IBP4, produced at BRI-NRC), IGFBP-5 (IBP5, produced at BRI-NRC and purchased from R&D systems) and IGFBP-6 (IBP6, from R&D systems) or the C-terminal protein fragments of IGFP-1 (CIBP1), IGFBP-2 (CIBP2), IGFBP-4 (CIBP4), IGFBP-5 (CIBP5) and IGFBP-6 (CIBP6), all produced at BRI-NRC). The ability of a synthetic membrane permeable cathepsin B inhibitor (CA074-ME, EMD Biosciences, Canada) to inhibit angiogenes and cathepsin B activity was also studied. CLT formation was analyzed after 24 h using an Olympus 1×50 microscope. Phase contrast images were captured with a digital video camera (Olympus U-CMT) and analyzed using Northern Eclipse v.5.0 software. Experiments were repeated three times. In order to determine the levels of cathepsin B activity in each experimental condition, at the end of the experiment, 6 μl of 26× Magic Red™ Cathepsin B reagent (Immunochemistry Technologies, LLC) were added to all the wells and maintained at 37° C. in dark for two hours. Cells were washed twice with HBSS and intracellular fluorescence quantification (530/25 nm excitation and 645/40 nm emission) was performed using a cytofluorimeter plate reader (Bio-Tek FL600).
To determine the ability of these angiogenic factors to stimulate cathepsin B activity in HBEC, a membrane permeable cathepsin B target sequence peptide (Arginine-Arginine) linked to an amide substituted fluorophore, cresyl violet (Magic Red™, Immunochemistry Technologies, LLC) was used. Following enzyme cleavage at the arginine amide linkage site, the cresyl violet fluorophore generates red fluorescence when excited at 550-590 nm.

[3] = test system: human brain endothelial cells (HBEC); experiment: Capillary-like tube (CLT) formation by HBEC on Matrigel (in vitro angiogenesis); format: cell-based; details: 20 nM, HBEC on Matrigel
Description: Human brain endothelial cells (HBEC) were obtained from small intracortical microvessels and capillaries (20-112 μm) harvested from temporal cortex from patients treated surgically for idiopathic epilepsy. Tissues were obtained with approval from the Institutional Research Ethics Committee. HBEC were separated from smooth muscle cells with cloning rings and grown at 37° C. in HBEC media containing Earle's salts, 25 mM 4-(2-hydroxyethyl)-1-piperazineethanesulfonic acid (HEPES), 4.35 g/L sodium bicarbonate, and 3 mM L-glutamine, 10% FBS, 5% human serum, 20% of media conditioned by murine melanoma cells (mouse melanoma, Cloudman S91, clone M-3, melanin-producing cells), 5 μg/ml insulin, […], 5 ng/ml selenium, and 10 μg/ml endothelial cell growth supplement. HBEC cultures were routinely characterized morphologically and biochemically.
as §1

CCCC(=O)Nc1ncnc2c1ncn2[C@@H]1O[C@@H]2COP(=O)(O)O[C@H]2[C@H]1OC(=O)CCC [dB-cAMP, dybutyril cAMP, reference compound]
inhibition of U87MG colony formation in soft agar (efficacy) (U87MG cells [1]; 500 μg/ml dB-cAMP, positive control): ~65%

B1: CIBP1: IGFBP-1 C-terminal domain (aa 170-259, SEQ ID No. 2) with octahistidine tag (protein)
chain: MGELLLLLLLGLRLQLSLGIASKKWKEPCRIELYRVVESLAKAQETSGEEISKFYLPNCNKNGFYHSRQCETSMDGEAGLCWCVYPWNGKRIPGSPEIRGDPNCQIYFNVQASSGSSTGHHHHHHHHG
modifications: octahistidine tag; C-terminal fragment of IGFBP-1
inhibition of U87MG colony formation in soft agar (efficacy) (U87MG cells [1]; 20 nM): ~25%

B2: CIBP6: IGFBP-6 C-terminal fragment (aas 151-240, SEQ ID No. 10) with octahistidine tag (protein)
chain: MGELLLLLLLGLRLQLSLGIARNSAGVQDTEMGPCRRHLDSVLQQLQTEVYRGAQTLYVPNCDHRGFYRKRQCRSSQGQRRGPCWCVDRMGKSLPGSPDGNGSSSCPTGSSGSSTGHHHHHHHHG
modifications: octahistidine tag; C-terminal fragment of IGFBP-6
inhibition of U87MG colony formation in soft agar (efficacy) (U87MG cells [1]; 20 nM): ~25%

B3: IGFBP-4: recombinant full-length IGFBP-4 (SEQ ID No. 5) with StreptagII-octahistidine tag (protein)
chain: MLPLCLVAALLLAAGPGPSLGDEAIHCPPCSEEKLARCRPPVGCEELVREPGCGCCATCALGLGMPCGVYTPRCGSGLRCYPPRGVEKPLHTLMHGQGVCMELAEIEAIQESLQPSDKDEGDHPNNSFSPCSAHDRRCLQKHFAKIRDRSTSGGKMKVNGAPREDARPVPQGSCQSELHRALERLAASQSRTHEDLYIIPIPNCDRNGNFHPKQCHPALDGQRGKCWCVDRKTGVKLPGGLEPKGELDCHQLADSFREVDPWSHPQFEKTGHHHHHHHHGGQ
modifications: StreptagII-octahistidine tag; human
reduction of U87MG colony formation in soft agar (U87MG cells [2]): able to reduce U87MG colony formation

B4: IBP2: recombinant full-length IGFBP-2 (aas 1-328, SEQ ID No. 3); produced at BRI-NRC and purchased from R&D systems (protein)
chain: MLPRVGCPALPLPPPPLLPLLPLLLLLLGASGGGGGARAEVLFRCPPCTPERLAACGPPPVAPPAAVAAVAGGARMPCAELVREPGCGCCSVCARLEGEACGVYTPRCGQGLRCYPHPGSELPLQALVMGEGTCEKRRDAEYGASPEQVADNGDDHSEGGLVENHVDSTMNMLGGGGSAGRKPLKSGMKELAVFREKVTEQHRQMGKGGKHHLGLEEPKKLRPPPARTPCQQELDQVLERISTMRLPDERGPLEHLYSLHIPNCDKHGLYNLKQCKMSLNGQRGECWCVNPNTGKLIQGAPTIRGDPECHLFYNEQQEARGVHTQRMQGSGWSHPQFEKTGHHHHHHHHGGQ
modifications: human
notes: produced at BRI-NRC and purchased from R&D systems
inhibition of intracellular cathepsin B activity induced by IGF-1 (cathepsin B; IGF-1 (150 ng/ml)): completely inhibit | inhibition of intracellular cathepsin B activity induced by U87MG CM (cathepsin B; U87MG CM): did not inhibit | inhibition of intracellular cathepsin B activity induced by VEGF (cathepsin B; VEGF (20 ng/ml)): completely inhibit | inhibition of intracellular cathepsin B activity induced by bFGF (cathepsin B; bFGF (20 ng/ml)): did not inhibit | inhibition of angiogenic response induced by IGF-1 ([3]; IGF-1 (150 ng/ml)): completely inhibit | inhibition of angiogenic response induced by U87MG CM ([3]; U87MG CM): did not inhibit | inhibition of angiogenic response induced by VEGF ([3]; VEGF (20 ng/ml)): completely inhibit | inhibition of angiogenic response induced by bFGF ([3]; bFGF (20 ng/ml)): did not inhibit

— patent publication US20100279937A1, “Method of Inhibiting Angiogenesis, Tumorigenesis and Cathepsin Activity” (priority 2006, published 2010)
